This assay has as its target microtubules (MTs) assembled with taxol in M-phase Xenopus egg extract (Xenopus laevis (endogenous in egg extract)). Kind of assay: co-sedimentation.

For “GFP-xINCENP 7A (from UniProt O13024 1-873) (natural protein)”, the fold increase in MT binding (against xINCENP) was determined as 2 fold.

For the origin of these results see publication PMC5379950.
